# Measurements published in patent CN111574631A.
# Assays:
# 硫氧还蛋白(Thioredoxin，Trx) [1] = assay: indirect ELISA, Trx coated at 1 ug/ml, antibody 125 ng/ml, goat anti-mouse IgG-HRP, OD450 (ref 630)
# 硫氧还蛋白(Thioredoxin，Trx) [2] = assay: indirect ELISA, Trx coated at 1 ug/ml, antibody 1.95 ng/ml, goat anti-mouse IgG-HRP, OD450 (ref 630)
# 硫氧还蛋白(Thioredoxin，Trx) [3] = assay: indirect ELISA, Trx coated at 1 ug/ml, antibody 1000 ng/ml, goat anti-mouse IgG-HRP, OD450 (ref 630)
# 硫氧还蛋白(Thioredoxin，Trx) [4] = assay: indirect ELISA, Trx coated at 1 ug/ml, antibody 15.63 ng/ml, goat anti-mouse IgG-HRP, OD450 (ref 630)
# 硫氧还蛋白(Thioredoxin，Trx) [5] = assay: indirect ELISA, Trx coated at 1 ug/ml, antibody 0 ng/ml (blank well), goat anti-mouse IgG-HRP, OD450 (ref 630)
# 硫氧还蛋白(Thioredoxin，Trx) [6] = assay: indirect ELISA, Trx coated at 3 ug/ml, supernatant of transiently transfected CHO cells diluted 1000-fold, goat anti-mouse-HRP, OD450 (ref 630)
# 硫氧还蛋白(Thioredoxin，Trx), sequence (P0AA25 2-109): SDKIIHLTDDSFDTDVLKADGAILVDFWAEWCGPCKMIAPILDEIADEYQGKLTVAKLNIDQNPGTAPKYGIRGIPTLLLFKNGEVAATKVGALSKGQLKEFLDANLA
binder,measurement,setting,value
"实施例4的硫氧还蛋白的单克隆抗体(WT) (antibody, mouse IgG1, kappa, V domains shown) VH: EVQLQQSGPMLVKPGASVTISCKASGFTITDYNLHWVRQSHGKSLEWIGYITSYNGGTGYNQKFKTKATLTVDKSSTTAYMELRSLTSDDSALYYCARNFRNYFEHWGQGTTLTVSS VL: DIQMTQPTSSLSASLGDRVTISCRASQDLYNSINWYQQKPDGTVKLLIYYTSRIHSGVPSRFSGSGSGTDYSLTISNLEQEDIATYFCQQGNSIPRTFGGGTKLEIKR",OD,硫氧还蛋白(Thioredoxin，Trx) [1],2.14 OD
same,OD,硫氧还蛋白(Thioredoxin，Trx) [2],0.488 OD
same,OD,硫氧还蛋白(Thioredoxin，Trx) [3],2.31 OD
same,OD,硫氧还蛋白(Thioredoxin，Trx) [4],1.62 OD
same,OD,硫氧还蛋白(Thioredoxin，Trx) [5],0.057 OD
same,OD,硫氧还蛋白(Thioredoxin，Trx) [6],> 1 OD
